Reference: patent publication US20060121462A1, “Receptor and screening methods” (priority 2003, published 2006)

Assays:
human C5L2 (human) [1] = target: human C5L2 (human) (UniProt Q9P296); assay: flow cytometry, binding/uptake of FLUOS-ASP on HEK 293 cells transiently transfected with C5L2, 30 min at 37 C
human C5L2 (human) [2] = target: human C5L2 (human) (UniProt Q9P296); assay: competition with 50 pM 125I-C5a on C5L2-transfected RBL cells, 4 C
human C5L2 (human) [3] = target: human C5L2 (human) (UniProt Q9P296); assay: competition with 50 pM 125I-C3a on C5L2-transfected RBL cells, 4 C

Chain of recombinant C3a des-Arg^77, P01024 672-747 (ligand; other documents disagree on this pair) (P01024 672-747 limits assumed): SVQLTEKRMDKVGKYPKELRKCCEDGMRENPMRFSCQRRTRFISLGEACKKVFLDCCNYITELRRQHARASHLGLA
Chain of human C5L2 (human) (Q9P296 whole entry): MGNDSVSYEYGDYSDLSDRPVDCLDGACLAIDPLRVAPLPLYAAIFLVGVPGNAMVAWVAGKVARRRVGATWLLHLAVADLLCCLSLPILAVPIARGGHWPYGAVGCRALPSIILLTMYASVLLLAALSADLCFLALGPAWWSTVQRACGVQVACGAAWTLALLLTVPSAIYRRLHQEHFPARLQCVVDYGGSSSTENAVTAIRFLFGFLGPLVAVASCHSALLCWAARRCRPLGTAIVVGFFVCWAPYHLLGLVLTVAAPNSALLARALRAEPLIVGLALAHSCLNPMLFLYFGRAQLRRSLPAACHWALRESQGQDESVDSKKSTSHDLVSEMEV
Chain of recombinant His6-tagged C3a, P01024 672-748 (ligand; other documents disagree on this pair) (P01024 672-748 limits assumed): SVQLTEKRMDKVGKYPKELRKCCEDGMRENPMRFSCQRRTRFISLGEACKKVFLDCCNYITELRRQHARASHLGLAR

| EC50 (human C5L2 (human) [1]) [nM] | IC50 (human C5L2 (human) [2]) [nM] | pD2 (human C5L2 (human) [2]) | IC50 (human C5L2 (human) [3]) [nM] | pD2 (human C5L2 (human) [3]) | Substance |
| --- | --- | --- | --- | --- | --- |
| 3 | – | – | – | – | plasma ASP (C3a des-Arg^77), purified from human plasma, P01024 672-747 (ligand; FLUOS (fluorescein) label in the flow cytometry assays, ^125I label in one assay; labelled residues not stated; other documents disagree on this pair) |
| – | 180000 | 4.73 -log IC50 | 526 | 6.24 -log IC50 | recombinant C3a des-Arg^77, P01024 672-747 (ligand; other documents disagree on this pair) |
| – | 230000 | 4.64 -log IC50 | 167 | 6.78 -log IC50 | recombinant His6-tagged C3a, P01024 672-748 (ligand; other documents disagree on this pair) |
